18 molecules from article PMC3367199 can be followed below.

B1: ndhG1L (ssRNA)
RNA: CCUGGACCAAUACAUGAUUUUCUUUUAGUUUUUCUGGGAUCCGGUCUUCUA
B2: ndhB9L (ssRNA)
RNA: GCUUUUCUUUCUGUUACUUCGAAAGUAGCUGCUUCAGCUUCAGCCACUCGA
B3: rpoB3L (ssRNA)
RNA: GGUUCAAGUUAUAACCCAGAAAUAAUUCGUGUAUAUAUUUCACAGAAACGU
B4: ndhD5L (ssRNA)
RNA: GUCGGUACAAUCCAAAUAAUUUAUGCAGCUUCAACAUCUCCCGGUCAACGU
B5: ndhB7L (ssRNA)
RNA: AUCACUGUAGGAAUUGGGUUCAAGCUUUCCCUAGCCCCUUCUCAUCAAUGG

T1 sequence (Q9LN01 41-741): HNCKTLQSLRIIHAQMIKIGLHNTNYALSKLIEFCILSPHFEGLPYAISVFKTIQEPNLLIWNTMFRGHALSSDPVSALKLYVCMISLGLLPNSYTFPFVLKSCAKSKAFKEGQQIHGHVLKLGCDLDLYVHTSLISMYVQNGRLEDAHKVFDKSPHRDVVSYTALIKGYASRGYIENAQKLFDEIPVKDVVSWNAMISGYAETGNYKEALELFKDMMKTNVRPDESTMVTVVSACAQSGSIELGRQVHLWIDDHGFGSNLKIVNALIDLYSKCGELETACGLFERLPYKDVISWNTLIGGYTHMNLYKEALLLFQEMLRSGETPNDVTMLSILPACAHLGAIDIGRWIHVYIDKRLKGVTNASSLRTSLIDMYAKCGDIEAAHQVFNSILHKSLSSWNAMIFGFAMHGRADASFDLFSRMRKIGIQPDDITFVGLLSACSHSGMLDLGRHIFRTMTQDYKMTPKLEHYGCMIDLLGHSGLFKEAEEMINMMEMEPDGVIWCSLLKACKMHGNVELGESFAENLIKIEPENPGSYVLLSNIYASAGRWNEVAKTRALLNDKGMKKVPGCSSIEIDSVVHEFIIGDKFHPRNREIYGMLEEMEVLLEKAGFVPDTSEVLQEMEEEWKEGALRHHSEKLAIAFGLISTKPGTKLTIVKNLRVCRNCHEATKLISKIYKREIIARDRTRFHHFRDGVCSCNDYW

The first data set has as its target T1, rOTP82 (UniProt Q9LN01 41-741). Description: EMSA.
B1: the binding result is given as “binds”. For the molecule UAGUUUUUCUGGGAUC (ssRNA) [ndhG1S], the affinity, expressed as Kd, was 0.0122 µM. UUUUUCUGGGAUC (ssRNA) [ndhG1S2] returned a Kd of 0.167 µM.

Molecule UAGCUGCUUCAGCUUC (ssRNA) [ndhB9S] returned a Kd of 0.0097 µM. On the same count and under the same terms, the figure for CUGCUUCAGCUUC (ssRNA) [ndhB9S2] is 0.119 µM. As for B2, the binding result is “binds”.

The target of another data set is T2, rCRR22 (UniProt Q3E6Q1 47-809).
T2 sequence: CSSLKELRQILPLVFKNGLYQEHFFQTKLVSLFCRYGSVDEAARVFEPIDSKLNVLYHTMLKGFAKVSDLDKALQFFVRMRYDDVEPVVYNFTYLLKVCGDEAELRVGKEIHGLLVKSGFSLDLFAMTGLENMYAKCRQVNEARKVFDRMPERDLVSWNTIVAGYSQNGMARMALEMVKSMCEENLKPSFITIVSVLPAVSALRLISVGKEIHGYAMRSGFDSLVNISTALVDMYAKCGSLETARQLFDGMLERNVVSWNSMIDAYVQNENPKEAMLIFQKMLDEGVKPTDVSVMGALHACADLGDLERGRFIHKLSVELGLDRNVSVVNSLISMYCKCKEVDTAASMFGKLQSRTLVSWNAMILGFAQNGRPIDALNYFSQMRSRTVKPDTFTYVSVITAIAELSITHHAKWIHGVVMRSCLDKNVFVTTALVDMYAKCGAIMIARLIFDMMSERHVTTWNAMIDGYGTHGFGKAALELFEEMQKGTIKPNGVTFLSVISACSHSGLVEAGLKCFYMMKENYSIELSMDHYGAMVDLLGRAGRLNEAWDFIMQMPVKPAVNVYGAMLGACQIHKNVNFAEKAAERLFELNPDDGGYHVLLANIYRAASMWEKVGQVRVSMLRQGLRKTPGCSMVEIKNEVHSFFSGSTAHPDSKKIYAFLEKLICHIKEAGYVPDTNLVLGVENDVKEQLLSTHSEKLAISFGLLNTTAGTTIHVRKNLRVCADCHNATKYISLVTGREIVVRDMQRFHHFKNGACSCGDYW
In words: EMSA.
Consider AAUAAUUCGUGUAUAUAUUUC (ssRNA) [rpoB3S], for which the Kd amounted to 0.0135 ± 0.0025 µM.

For B3, the binding result is recorded as “binds”.

As to B4, the binding result is listed as “binds”. As to B5, the binding result is “binds”. Regarding UGCAGCUUCAACAUCUCC (ssRNA) [ndhD5S2], the Kd worked out at 0.0962 µM.

As to CAAGCUUUCCCUAGCCCCUUC (ssRNA) [ndhB7S], binding was put at a Kd of 0.0092 µM. GCUUUCCCUAGCCCCUUC (ssRNA) [ndhB7S2] had a Kd of 0.07 µM. Still for that read-out and setting: to UUAUGCAGCUUCAACAUCUCC (ssRNA) [ndhD5S] belongs 0.0108 µM; to AAUUCGUGUAUAUAUUUC (ssRNA) [rpoB3S2], 0.0189 ± 0.0031 µM.

In a further data set the target is T1, rOTP82. In words: EMSA. This is another data set of the same source.
With GCAAUGUACAGCGGUCAAAUAGGAUCAUUUUCUUCU (ssRNA) [ndhD2], the binding result is given as “no binding”.

For the molecule GACCUGGUGUAUCUUGUCUUUACCACGAAUGAUUUU (ssRNA) [ndhD1], the binding result is given as “no binding”.

The target of a further data set is T2, rCRR22. In words: EMSA. This is another data set of the same source.
As for UAACUGUCCUAGCUCUACCG (ssRNA) [ycf1], the binding result is listed as “no binding”.

GACCUGGUGUAUCUUGUCUUUACCACGAAUGAUUUU (ssRNA) [ndhD1]: the binding result is reported as “no binding”.

In general, Kd refers to the free concentration of one partner at which half of the binding sites on the other are occupied at equilibrium, for simple one-to-one binding. Low values mean tighter binding, high ones weaker binding.
